Measurements reported in US20180022815A1.

Target: BCMA and CD138 on H929 cells
Assay: flow cytometry on H929 cells, sheep antihuman Ig-FITC secondary

- percent of H929 cells stained ("efficiency"): 84.8%
B1: bi-specific CD138/BCMA-IgG (dual CD138 scFv - 218S linker - BCMA scFv fused with a human IgG Fc) (bispecific antibody, not shown: a dimerising Fc or GST)
chain: DIQMTQSTSSLSASLGDRVTISCSASQGINNYLNWYQQKPDGTVELLIYYTSTLQSGVPSRFSGSGSGTDYSLTISNLEPEDIGTYYCQQYSKLPRTFGGGTKLEIKGSTSGSGKPGSSEGSTKGQVQLQQSGSELMMPGASVKISCKATGYTFSNYWIEWVKQRPGHGLEWIGEILPGTGRTIYNEKFKGKATFTADISSNTVQMQLSSLTSEDSAVYYCARRDYYGNFYYAMDYWGQGTSVTVSSGSTSGSGKPGSSEGSTKDIVLTQSPASLAVSLGDRATINCRASESVSVIGAHLIHWYQQKPGQPPKLLIYLASNLETGVPARFSGSGSGTDFTLTISSLQAEDAAIYYCLQSRIFPRTFGQGTKLEIKGSTSGSGKPGSSEGSTKGQVQLVQSGSELKKPGASVKVSCKASGYTFTDYSIQWVRQAPGQGLEWMGWIQTETREPAYAYDFRGRFVFSLDTSVSTAYLQISSLKAEDTAVYYCALDYSYAMDYWGQGTLVTVSS
